Like-named read-outs stand apart in the source and are kept apart here. Bridge positions count the residues as written; N and C are the ends. Square brackets hold non-standard residues; d marks the D form. Ends that are not written are not given here. * marks the point of attachment. COCH2CH2S‑Chol = CC(C)CCC[C@@H](C)[C@H]1CC[C@H]2[C@@H]3CC=C4C[C@@H](SCCC(=O)*)CC[C@]4(C)[C@H]3CC[C@]12C; Abu(4-SO3H) = N[C@@H](CCS(=O)(=O)O)C(=O)O; PhLac = O=C(O)[C@@H](O)Cc1ccccc1; Aib = CC(C)(N)C(=O)O
Columns and labels:
[1] = target: human GLP-1 receptor (human) (UniProt P43220); assay: cell-based or functional assay
human GLP-1 receptor (human), sequence (P43220 24-463): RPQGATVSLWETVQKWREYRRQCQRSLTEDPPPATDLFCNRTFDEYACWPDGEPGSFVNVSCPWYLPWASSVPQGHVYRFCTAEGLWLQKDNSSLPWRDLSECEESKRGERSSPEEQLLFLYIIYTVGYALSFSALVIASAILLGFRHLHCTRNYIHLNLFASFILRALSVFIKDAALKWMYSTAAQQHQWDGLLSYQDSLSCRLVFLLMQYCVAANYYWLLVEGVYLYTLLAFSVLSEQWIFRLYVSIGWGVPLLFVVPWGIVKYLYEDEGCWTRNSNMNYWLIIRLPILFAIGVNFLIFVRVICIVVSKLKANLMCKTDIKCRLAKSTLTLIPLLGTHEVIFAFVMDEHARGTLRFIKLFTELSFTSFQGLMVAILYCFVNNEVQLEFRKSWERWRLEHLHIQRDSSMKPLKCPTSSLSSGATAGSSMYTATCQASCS

[2] = target: human glucagon receptor (human) (UniProt P47871); assay: cell-based or functional assay
human glucagon receptor (human), sequence (P47871 26-477): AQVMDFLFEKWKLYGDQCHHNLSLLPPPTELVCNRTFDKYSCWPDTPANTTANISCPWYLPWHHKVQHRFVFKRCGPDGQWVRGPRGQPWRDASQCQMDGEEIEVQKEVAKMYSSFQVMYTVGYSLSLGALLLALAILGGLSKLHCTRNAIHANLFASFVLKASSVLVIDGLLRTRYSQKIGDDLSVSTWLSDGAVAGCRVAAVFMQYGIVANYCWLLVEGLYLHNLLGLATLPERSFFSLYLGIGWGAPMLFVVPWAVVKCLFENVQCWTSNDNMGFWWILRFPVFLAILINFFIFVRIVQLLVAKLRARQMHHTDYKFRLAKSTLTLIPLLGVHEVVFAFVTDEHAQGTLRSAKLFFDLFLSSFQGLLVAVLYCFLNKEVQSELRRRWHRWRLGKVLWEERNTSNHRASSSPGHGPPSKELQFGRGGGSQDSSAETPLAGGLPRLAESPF

[3] = target: T1, human glucagon receptor (human, UniProt P47871 26-477); assay: cell-based or functional assay
T1 sequence (P47871 26-477): as above

[4] = target: T2, human GLP-1 receptor (human, UniProt P43220 24-463); assay: cell-based or functional assay
[5] = target: T1, human glucagon receptor; assay: cell-based or functional assay; remark: listed apart in the source
[6] = target: T1, human glucagon receptor; assay: SPA competition vs 125I-glucagon, receptor membranes
[7] = target: T1, human glucagon receptor; assay: cell-based or functional assay; remark: listed apart in the source
[8] = target: T2, human GLP-1 receptor; assay: cell-based or functional assay; remark: listed apart in the source
[9] = target: T1, human glucagon receptor; assay: cell-based or functional assay; remark: listed apart in the source
[10] = target: T2, human GLP-1 receptor; assay: cell-based or functional assay; remark: listed apart in the source
[11] = target: T1, human glucagon receptor; assay: cell-based or functional assay; remark: listed apart in the source
[12] = target: T2, human GLP-1 receptor; assay: cell-based or functional assay; remark: listed apart in the source
[13] = target: T1, human glucagon receptor; assay: cell-based or functional assay; remark: listed apart in the source
[14] = target: T2, human GLP-1 receptor; assay: cell-based or functional assay; remark: listed apart in the source
[15] = target: T1, human glucagon receptor; assay: cell-based or functional assay; remark: listed apart in the source
[16] = target: T1, human glucagon receptor; assay: SPA competition vs 125I-glucagon, receptor membranes; remark: listed apart in the source
[17] = target: T1, human glucagon receptor; assay: cell-based or functional assay; remark: listed apart in the source

[E9, E16, K20] G(6-39) (peptide)
GLP-1 agonism EC50 [1]: 1040 nM

[E9, E16K20(lactam)]G(6-39) (peptide)
Glu IC50 [2]: 42 nM | Glucagon IC50 [2]: 42 nM | Glucagon antagonism IC50 (inhibit 0.2-0.8 nM glucagon) [2]: 42 nM | GLP-1 EC50 [1]: 36 nM | GLP-1 agonism EC50 [1]: 36.4 nM

[d-Cys^5(20kDaPEG), E^9]Glucagon(aa5-29)-NH2 (peptide)
IC50 (cAMP, inhibit 0.2 mM Glucagon) [3]: 14800 nM

B1: K30-chol G(6-30) (peptide)
peptide: [PhLac]TSDYSKYLDERRAKDFVQWLMDTK(COCH2CH2S‑Chol)-NH2
modifications: lactam 11-15; N-terminus assumed
SMILES: CSCC[C@H](NC(=O)[C@H](CC(C)C)NC(=O)[C@H](Cc1c[nH]c2ccccc12)NC(=O)[C@H](CCC(N)=O)NC(=O)[C@@H](NC(=O)[C@H](Cc1ccccc1)NC(=O)[C@H](CC(=O)O)NC(=O)[C@@H]1CCCCNC(=O)CC[C@H](NC(=O)[C@H](CC(=O)O)NC(=O)[C@H](CC(C)C)NC(=O)[C@H](Cc2ccc(O)cc2)NC(=O)[C@H](CCCCN)NC(=O)[C@H](CO)NC(=O)[C@H](Cc2ccc(O)cc2)NC(=O)[C@H](CC(=O)O)NC(=O)[C@H](CO)NC(=O)[C@@H](NC(=O)[C@@H](O)Cc2ccccc2)[C@@H](C)O)C(=O)N[C@@H](CCCNC(=N)N)C(=O)N[C@@H](CCCNC(=N)N)C(=O)N[C@@H](C)C(=O)N1)C(C)C)C(=O)N[C@@H](CC(=O)O)C(=O)N[C@H](C(=O)N[C@@H](CCCCNC(=O)CCS[C@H]1CC[C@@]2(C)C(=CC[C@H]3[C@@H]4CC[C@H]([C@H](C)CCCC(C)C)[C@@]4(C)CC[C@@H]32)C1)C(N)=O)[C@@H](C)O
GLP-1 agonism EC50 [4]: 14.4 nM | Glucagon antagonism IC50 (inhibit 0.4 nM glucagon) [5]: 575 nM

B2: [hCys^9(SO3H)]Glucagon(aa4-29)-NH2 (peptide)
peptide: GTFTS[Abu(4-SO3H)]YSKYLDSRRAQDFVQWLMNT-NH2
modifications: N-terminus assumed
SMILES: CSCC[C@H](NC(=O)[C@H](CC(C)C)NC(=O)[C@H](Cc1c[nH]c2ccccc12)NC(=O)[C@H](CCC(N)=O)NC(=O)[C@@H](NC(=O)[C@H](Cc1ccccc1)NC(=O)[C@H](CC(=O)O)NC(=O)[C@H](CCC(N)=O)NC(=O)[C@H](C)NC(=O)[C@H](CCCNC(=N)N)NC(=O)[C@H](CCCNC(=N)N)NC(=O)[C@H](CO)NC(=O)[C@H](CC(=O)O)NC(=O)[C@H](CC(C)C)NC(=O)[C@H](Cc1ccc(O)cc1)NC(=O)[C@H](CCCCN)NC(=O)[C@H](CO)NC(=O)[C@H](Cc1ccc(O)cc1)NC(=O)[C@H](CCS(=O)(=O)O)NC(=O)[C@H](CO)NC(=O)[C@@H](NC(=O)[C@H](Cc1ccccc1)NC(=O)[C@@H](NC(=O)CN)[C@@H](C)O)[C@@H](C)O)C(C)C)C(=O)N[C@@H](CC(N)=O)C(=O)N[C@H](C(N)=O)[C@@H](C)O
IC50 [6]: 41.5 nM | cAMP IC50 [7]: 68.4 nM | cAMP pA2 [7]: 7.22

B3: K10-chol G(6-29) (peptide)
peptide: [PhLac]TSDK(COCH2CH2S‑Chol)SKYLDERRAKDFVQWLMDT-NH2
modifications: lactam 11-15; N-terminus assumed
SMILES: CSCC[C@H](NC(=O)[C@H](CC(C)C)NC(=O)[C@H](Cc1c[nH]c2ccccc12)NC(=O)[C@H](CCC(N)=O)NC(=O)[C@@H](NC(=O)[C@H](Cc1ccccc1)NC(=O)[C@H](CC(=O)O)NC(=O)[C@@H]1CCCCNC(=O)CC[C@H](NC(=O)[C@H](CC(=O)O)NC(=O)[C@H](CC(C)C)NC(=O)[C@H](Cc2ccc(O)cc2)NC(=O)[C@H](CCCCN)NC(=O)[C@H](CO)NC(=O)[C@H](CCCCNC(=O)CCS[C@H]2CC[C@@]3(C)C(=CC[C@H]4[C@@H]5CC[C@H]([C@H](C)CCCC(C)C)[C@@]5(C)CC[C@@H]43)C2)NC(=O)[C@H](CC(=O)O)NC(=O)[C@H](CO)NC(=O)[C@@H](NC(=O)[C@@H](O)Cc2ccccc2)[C@@H](C)O)C(=O)N[C@@H](CCCNC(=N)N)C(=O)N[C@@H](CCCNC(=N)N)C(=O)N[C@@H](C)C(=O)N1)C(C)C)C(=O)N[C@@H](CC(=O)O)C(=O)N[C@H](C(N)=O)[C@@H](C)O
GLP-1 agonism EC50 [4]: 35.2 nM | Glucagon antagonism IC50 (inhibit 0.4 nM glucagon) [5]: 271 nM

B4: [H1A2E3, E9, E16K20(Lactam), D28]G(1-29) (peptide)
peptide: HAEGTFTSEYSKYLDERRAKDFVQWLMDT-NH2
modifications: lactam 16-20; N-terminus assumed
SMILES: CSCC[C@H](NC(=O)[C@H](CC(C)C)NC(=O)[C@H](Cc1c[nH]c2ccccc12)NC(=O)[C@H](CCC(N)=O)NC(=O)[C@@H](NC(=O)[C@H](Cc1ccccc1)NC(=O)[C@H](CC(=O)O)NC(=O)[C@@H]1CCCCNC(=O)CC[C@H](NC(=O)[C@H](CC(=O)O)NC(=O)[C@H](CC(C)C)NC(=O)[C@H](Cc2ccc(O)cc2)NC(=O)[C@H](CCCCN)NC(=O)[C@H](CO)NC(=O)[C@H](Cc2ccc(O)cc2)NC(=O)[C@H](CCC(=O)O)NC(=O)[C@H](CO)NC(=O)[C@@H](NC(=O)[C@H](Cc2ccccc2)NC(=O)[C@@H](NC(=O)CNC(=O)[C@H](CCC(=O)O)NC(=O)[C@H](C)NC(=O)[C@@H](N)Cc2c[nH]cn2)[C@@H](C)O)[C@@H](C)O)C(=O)N[C@@H](CCCNC(=N)N)C(=O)N[C@@H](CCCNC(=N)N)C(=O)N[C@@H](C)C(=O)N1)C(C)C)C(=O)N[C@@H](CC(=O)O)C(=O)N[C@H](C(N)=O)[C@@H](C)O
GLP-1 agonism EC50 [8]: 0.11 nM | Glucagon antagonism IC50 (inhibit 0.2-0.8 nM glucagon) [9]: 129 nM | GLP-1 agonism EC50 [10]: 0.11 nM | Glucagon antagonism IC50 (inhibit 0.8 nM glucagon) [11]: 129 nM | GLP-1 EC50 [12]: 0.2 nM | Glucagon IC50 [13]: 130 nM | GLP-1 agonism EC50 [14]: 0.11 nM | Glucagon antagonism IC50 (inhibit 0.8 nM glucagon) [15]: 129 nM

B5: [G4T5, E9, E16K20(Lactam), D28] G(4-29) (peptide)
peptide: GTFTSEYSKYLDERRAKDFVQWLMDT-NH2
modifications: lactam 13-17; N-terminus assumed
SMILES: CSCC[C@H](NC(=O)[C@H](CC(C)C)NC(=O)[C@H](Cc1c[nH]c2ccccc12)NC(=O)[C@H](CCC(N)=O)NC(=O)[C@@H](NC(=O)[C@H](Cc1ccccc1)NC(=O)[C@H](CC(=O)O)NC(=O)[C@@H]1CCCCNC(=O)CC[C@H](NC(=O)[C@H](CC(=O)O)NC(=O)[C@H](CC(C)C)NC(=O)[C@H](Cc2ccc(O)cc2)NC(=O)[C@H](CCCCN)NC(=O)[C@H](CO)NC(=O)[C@H](Cc2ccc(O)cc2)NC(=O)[C@H](CCC(=O)O)NC(=O)[C@H](CO)NC(=O)[C@@H](NC(=O)[C@H](Cc2ccccc2)NC(=O)[C@@H](NC(=O)CN)[C@@H](C)O)[C@@H](C)O)C(=O)N[C@@H](CCCNC(=N)N)C(=O)N[C@@H](CCCNC(=N)N)C(=O)N[C@@H](C)C(=O)N1)C(C)C)C(=O)N[C@@H](CC(=O)O)C(=O)N[C@H](C(N)=O)[C@@H](C)O
GLP-1 agonism EC50 [10]: 151 nM | Glucagon antagonism IC50 (inhibit 0.8 nM glucagon) [11]: 12.7 nM | GLP-1 EC50 [12]: 151 nM

B6: [hCys^9(SO3H)]Glucagon(aa5-29)-NH2 (peptide)
peptide: TFTS[Abu(4-SO3H)]YSKYLDSRRAQDFVQWLMNT-NH2
modifications: N-terminus assumed
SMILES: CSCC[C@H](NC(=O)[C@H](CC(C)C)NC(=O)[C@H](Cc1c[nH]c2ccccc12)NC(=O)[C@H](CCC(N)=O)NC(=O)[C@@H](NC(=O)[C@H](Cc1ccccc1)NC(=O)[C@H](CC(=O)O)NC(=O)[C@H](CCC(N)=O)NC(=O)[C@H](C)NC(=O)[C@H](CCCNC(=N)N)NC(=O)[C@H](CCCNC(=N)N)NC(=O)[C@H](CO)NC(=O)[C@H](CC(=O)O)NC(=O)[C@H](CC(C)C)NC(=O)[C@H](Cc1ccc(O)cc1)NC(=O)[C@H](CCCCN)NC(=O)[C@H](CO)NC(=O)[C@H](Cc1ccc(O)cc1)NC(=O)[C@H](CCS(=O)(=O)O)NC(=O)[C@H](CO)NC(=O)[C@@H](NC(=O)[C@H](Cc1ccccc1)NC(=O)[C@@H](N)[C@@H](C)O)[C@@H](C)O)C(C)C)C(=O)N[C@@H](CC(N)=O)C(=O)N[C@H](C(N)=O)[C@@H](C)O
IC50 [6]: 33.9 nM | cAMP IC50 [7]: 98.3 nM | cAMP pA2 [7]: 6.77

B7: Aib depsi lactam G(2-29) (peptide)
peptide: [Aib]EGT[PhLac]TSDYSKYLDERRAKDFVQWLMDT-NH2
modifications: lactam 15-19; also: PLA6 linked to Thr5 by an ester bond (depsipeptide)
GLP-1 agonism EC50 [4]: 5.83 nM | Glucagon antagonism IC50 (inhibit 0.4 nM glucagon) [5]: 11.8 nM

B8: [hCys^9(SO3H)]Glucagon(aa2-29)-NH2 (peptide)
peptide: SQGTFTS[Abu(4-SO3H)]YSKYLDSRRAQDFVQWLMNT-NH2
IC50 [6]: 13.2 nM | cAMP IC50 [7]: 147 nM

B9: [hCys^9(SO3H)]Glucagon(aa6-29)-NH2 (peptide)
peptide: FTS[Abu(4-SO3H)]YSKYLDSRRAQDFVQWLMNT-NH2
notes: also called [hCys(SO3)9]Glucagon(aa6-29)-NH2
IC50 [6]: 59.1 nM | IC50 [16]: 59.1 nM | cAMP IC50 [7]: 133 nM | cAMP pA2 [7]: 7.16 | cAMP IC50 [17]: 133 nM | cAMP pA2 [17]: 7.16

Reference: US20110098217A1 (INDIANA UNIVERSITY RESEARCH AND TECHNOLOGY, published 2011)
